{"source": "patent US20210221914A1", "key": {"CD16b (FcgammaRIIIb)": {"target": "CD16b (FcgammaRIIIb) (UniProt O75015)", "assay": "SPR, BIAcore 8K, antibody captured on anti-Fab chip, single-cycle kinetics, bivalent analyte model"}, "CD16a176V": {"target": "CD16a176V (UniProt P08637)", "sequence (P08637 17-208 F176V limits assumed)": "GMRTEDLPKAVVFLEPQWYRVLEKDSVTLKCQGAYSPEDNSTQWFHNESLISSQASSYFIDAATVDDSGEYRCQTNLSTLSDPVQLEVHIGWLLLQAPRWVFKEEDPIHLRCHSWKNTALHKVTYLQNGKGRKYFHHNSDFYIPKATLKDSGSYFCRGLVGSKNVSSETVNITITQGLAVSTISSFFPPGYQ", "assay": "SPR, BIAcore 8K, antibody captured on anti-Fab chip, single-cycle kinetics, bivalent analyte model"}, "CD16a176F": {"target": "CD16a176F (UniProt P08637)", "sequence (P08637 17-208 limits assumed)": "as the sequence (P08637 17-208 F176V limits assumed) above, with V160F counted along it", "assay": "SPR, BIAcore 8K, antibody captured on anti-Fab chip, single-cycle kinetics, bivalent analyte model"}, "CD32a167H": {"target": "CD32a167H (UniProt P12318)", "sequence (P12318 36-218 limits assumed)": "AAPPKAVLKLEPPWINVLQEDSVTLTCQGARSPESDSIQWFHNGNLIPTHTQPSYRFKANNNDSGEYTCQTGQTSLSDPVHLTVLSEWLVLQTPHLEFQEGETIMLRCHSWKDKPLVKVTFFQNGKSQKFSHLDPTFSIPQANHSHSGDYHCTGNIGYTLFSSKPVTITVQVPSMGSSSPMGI", "assay": "SPR, BIAcore 8K, antibody captured on anti-Fab chip, steady state affinity fit"}, "CD32b (FcgammaRIIb)": {"target": "CD32b (FcgammaRIIb) (UniProt P31994)", "sequence (P31994 46-217 limits assumed)": "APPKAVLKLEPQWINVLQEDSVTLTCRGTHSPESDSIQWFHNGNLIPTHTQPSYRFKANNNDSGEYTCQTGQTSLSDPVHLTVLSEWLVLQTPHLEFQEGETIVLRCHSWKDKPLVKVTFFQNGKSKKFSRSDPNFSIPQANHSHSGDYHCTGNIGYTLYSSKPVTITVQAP", "assay": "SPR, BIAcore 8K, antibody captured on anti-Fab chip, steady state affinity fit"}, "CD32a167R": {"target": "CD32a167R (UniProt P12318)", "sequence (P12318 36-218 H167R limits assumed)": "as the sequence (P12318 36-218 limits assumed) above, with H132R counted along it", "assay": "SPR, BIAcore 8K, antibody captured on anti-Fab chip, steady state affinity fit"}, "CD64 (FcgammaRI)": {"target": "CD64 (FcgammaRI) (UniProt P12314)", "sequence (P12314 16-288 limits assumed)": "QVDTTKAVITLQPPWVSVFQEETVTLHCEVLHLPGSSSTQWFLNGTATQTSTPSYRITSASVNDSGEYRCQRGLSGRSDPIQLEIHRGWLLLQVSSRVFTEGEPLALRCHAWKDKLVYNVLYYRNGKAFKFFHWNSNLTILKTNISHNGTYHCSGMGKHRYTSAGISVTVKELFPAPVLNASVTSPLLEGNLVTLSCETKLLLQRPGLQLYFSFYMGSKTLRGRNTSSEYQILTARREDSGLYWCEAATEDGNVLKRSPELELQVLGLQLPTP", "assay": "SPR, single-cycle kinetics, bivalent analyte model"}}, "data": [{"substance": "CD-WT antibody (human IgG1, m1,17 allotype, wild-type CD loop)", "values": [{"measurement": "Kd", "setting": "CD16b (FcgammaRIIIb)", "result": 426, "unit": "nM"}, {"measurement": "koff", "setting": "CD16b (FcgammaRIIIb)", "result": 0.166, "unit": "s⁻¹"}, {"measurement": "kon", "setting": "CD16b (FcgammaRIIIb)", "result": 389000, "unit": "M⁻¹ s⁻¹"}, {"measurement": "Kd", "setting": "CD16a176V", "result": 241, "unit": "nM"}, {"measurement": "koff", "setting": "CD16a176V", "result": 0.181, "unit": "s⁻¹"}, {"measurement": "kon", "setting": "CD16a176V", "result": 751000, "unit": "M⁻¹ s⁻¹"}, {"measurement": "Kd", "setting": "CD16a176F", "result": 869, "unit": "nM"}, {"measurement": "koff", "setting": "CD16a176F", "result": 0.185, "unit": "s⁻¹"}, {"measurement": "kon", "setting": "CD16a176F", "result": 213000, "unit": "M⁻¹ s⁻¹"}, {"measurement": "Kd", "setting": "CD32a167H", "result": 450, "unit": "nM"}, {"measurement": "Kd", "setting": "CD32b (FcgammaRIIb)", "result": 1530, "unit": "nM"}, {"measurement": "Kd", "setting": "CD32a167R", "result": 439, "unit": "nM"}]}, {"substance": "CD-GLU antibody (human IgG1, m1,17 allotype, CD loop replaced by the Glu epitope YMPMENNY)", "values": [{"measurement": "Kd", "setting": "CD16b (FcgammaRIIIb)", "result": 556, "unit": "nM"}, {"measurement": "koff", "setting": "CD16b (FcgammaRIIIb)", "result": 0.168, "unit": "s⁻¹"}, {"measurement": "kon", "setting": "CD16b (FcgammaRIIIb)", "result": 302000, "unit": "M⁻¹ s⁻¹"}, {"measurement": "Kd", "setting": "CD16a176V", "result": 334, "unit": "nM"}, {"measurement": "koff", "setting": "CD16a176V", "result": 0.146, "unit": "s⁻¹"}, {"measurement": "kon", "setting": "CD16a176V", "result": 438000, "unit": "M⁻¹ s⁻¹"}, {"measurement": "Kd", "setting": "CD16a176F", "result": 1050, "unit": "nM"}, {"measurement": "koff", "setting": "CD16a176F", "result": 0.189, "unit": "s⁻¹"}, {"measurement": "kon", "setting": "CD16a176F", "result": 181000, "unit": "M⁻¹ s⁻¹"}, {"measurement": "Kd", "setting": "CD32a167H", "result": 505, "unit": "nM"}, {"measurement": "Kd", "setting": "CD32b (FcgammaRIIb)", "result": 1610, "unit": "nM"}, {"measurement": "Kd", "setting": "CD32a167R", "result": 488, "unit": "nM"}, {"measurement": "fold increase in off-rate relative to CD-WT", "setting": "CD64 (FcgammaRI)", "result": 1.2, "unit": "fold"}]}]}
